Measurements reported in paper PMC11306496.

How the values were obtained:
Experiment in all cases: co-IP; total rat hippocampal lysates with primary antibody and Protein A/G agarose, 4°C; buffer pH 7.4, 0.05 mol/L HEPES, 0.15 mol/L NaCl, 0.5% NP-40, 1% Triton X-100; non-immune IgG as control; slices untreated or treated with PMA (0.5 umol/L, 10 min) and/or AIP (1 umol/L)
[1] = target: NMDA receptor subunit GluN1 (rat (endogenous in hippocampus)) (UniProt P35439)
[2] = target: small GTPase Rab11 (rat (endogenous in hippocampus)) (UniProt P62494)
Sequence of small GTPase Rab11 (rat (endogenous in hippocampus)) (P62494 whole entry): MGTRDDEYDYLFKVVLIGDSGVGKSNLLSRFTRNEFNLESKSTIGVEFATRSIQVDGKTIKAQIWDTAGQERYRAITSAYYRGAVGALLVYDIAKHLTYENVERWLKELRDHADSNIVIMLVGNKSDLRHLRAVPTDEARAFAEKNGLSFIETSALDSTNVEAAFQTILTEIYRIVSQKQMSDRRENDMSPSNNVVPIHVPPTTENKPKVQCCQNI

[3] = target: Rab11 family-interacting protein 3 (rat (endogenous in hippocampus))
[4] = target: myosin Va (rat (endogenous in hippocampus)) (UniProt Q9QYF3)
Sequence of myosin Va (rat (endogenous in hippocampus)) (Q9QYF3 whole entry): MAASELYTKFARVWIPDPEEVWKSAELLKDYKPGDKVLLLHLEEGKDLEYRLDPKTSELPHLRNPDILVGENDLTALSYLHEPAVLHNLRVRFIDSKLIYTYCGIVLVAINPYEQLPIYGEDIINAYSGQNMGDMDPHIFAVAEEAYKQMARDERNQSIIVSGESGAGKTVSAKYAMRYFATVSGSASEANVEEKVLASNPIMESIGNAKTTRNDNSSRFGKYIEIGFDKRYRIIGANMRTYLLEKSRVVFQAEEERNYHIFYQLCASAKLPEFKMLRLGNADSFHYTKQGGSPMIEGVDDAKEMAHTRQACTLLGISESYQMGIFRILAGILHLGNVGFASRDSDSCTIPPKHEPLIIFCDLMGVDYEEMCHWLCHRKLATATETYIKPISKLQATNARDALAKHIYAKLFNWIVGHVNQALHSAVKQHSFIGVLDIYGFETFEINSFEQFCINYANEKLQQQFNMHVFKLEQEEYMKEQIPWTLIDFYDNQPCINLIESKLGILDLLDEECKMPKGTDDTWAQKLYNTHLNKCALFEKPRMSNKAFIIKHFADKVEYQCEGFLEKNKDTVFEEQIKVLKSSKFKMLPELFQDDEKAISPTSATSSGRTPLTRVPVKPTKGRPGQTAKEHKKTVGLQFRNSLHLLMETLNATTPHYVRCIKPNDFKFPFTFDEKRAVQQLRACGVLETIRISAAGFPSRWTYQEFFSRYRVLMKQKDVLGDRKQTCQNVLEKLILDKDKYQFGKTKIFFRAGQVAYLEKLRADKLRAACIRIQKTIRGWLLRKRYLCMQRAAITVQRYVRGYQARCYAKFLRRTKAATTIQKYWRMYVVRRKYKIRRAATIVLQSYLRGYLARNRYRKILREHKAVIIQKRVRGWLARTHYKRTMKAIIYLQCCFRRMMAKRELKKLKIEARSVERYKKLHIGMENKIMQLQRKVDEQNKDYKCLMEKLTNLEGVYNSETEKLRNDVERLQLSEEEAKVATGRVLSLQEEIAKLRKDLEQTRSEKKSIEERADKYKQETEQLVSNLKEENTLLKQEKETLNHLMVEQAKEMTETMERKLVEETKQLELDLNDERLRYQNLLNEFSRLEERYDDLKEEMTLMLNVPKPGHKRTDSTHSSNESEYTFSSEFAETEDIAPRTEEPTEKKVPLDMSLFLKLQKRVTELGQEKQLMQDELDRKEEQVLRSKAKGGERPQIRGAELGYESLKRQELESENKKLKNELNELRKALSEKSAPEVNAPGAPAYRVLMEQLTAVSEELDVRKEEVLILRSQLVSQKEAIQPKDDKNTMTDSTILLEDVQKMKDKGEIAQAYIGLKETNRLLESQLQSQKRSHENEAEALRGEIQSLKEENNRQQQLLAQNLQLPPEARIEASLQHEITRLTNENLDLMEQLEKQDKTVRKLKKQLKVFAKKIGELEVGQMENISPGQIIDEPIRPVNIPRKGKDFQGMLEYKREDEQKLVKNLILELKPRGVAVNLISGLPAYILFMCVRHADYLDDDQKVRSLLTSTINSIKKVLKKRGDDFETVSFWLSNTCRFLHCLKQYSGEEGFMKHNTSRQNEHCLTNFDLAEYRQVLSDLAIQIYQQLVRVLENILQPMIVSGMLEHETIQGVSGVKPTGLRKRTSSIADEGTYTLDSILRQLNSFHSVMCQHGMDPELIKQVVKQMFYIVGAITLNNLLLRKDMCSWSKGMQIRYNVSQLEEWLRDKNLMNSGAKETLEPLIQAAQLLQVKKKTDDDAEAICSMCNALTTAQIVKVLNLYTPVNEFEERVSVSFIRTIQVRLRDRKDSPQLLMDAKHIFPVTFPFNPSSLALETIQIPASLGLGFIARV

Sequence of small GTPase Rab11 (P62494 whole entry): as the sequence (P62494 whole entry) above
Sequence of NMDA receptor subunit GluN2A (Q00959 23-1464): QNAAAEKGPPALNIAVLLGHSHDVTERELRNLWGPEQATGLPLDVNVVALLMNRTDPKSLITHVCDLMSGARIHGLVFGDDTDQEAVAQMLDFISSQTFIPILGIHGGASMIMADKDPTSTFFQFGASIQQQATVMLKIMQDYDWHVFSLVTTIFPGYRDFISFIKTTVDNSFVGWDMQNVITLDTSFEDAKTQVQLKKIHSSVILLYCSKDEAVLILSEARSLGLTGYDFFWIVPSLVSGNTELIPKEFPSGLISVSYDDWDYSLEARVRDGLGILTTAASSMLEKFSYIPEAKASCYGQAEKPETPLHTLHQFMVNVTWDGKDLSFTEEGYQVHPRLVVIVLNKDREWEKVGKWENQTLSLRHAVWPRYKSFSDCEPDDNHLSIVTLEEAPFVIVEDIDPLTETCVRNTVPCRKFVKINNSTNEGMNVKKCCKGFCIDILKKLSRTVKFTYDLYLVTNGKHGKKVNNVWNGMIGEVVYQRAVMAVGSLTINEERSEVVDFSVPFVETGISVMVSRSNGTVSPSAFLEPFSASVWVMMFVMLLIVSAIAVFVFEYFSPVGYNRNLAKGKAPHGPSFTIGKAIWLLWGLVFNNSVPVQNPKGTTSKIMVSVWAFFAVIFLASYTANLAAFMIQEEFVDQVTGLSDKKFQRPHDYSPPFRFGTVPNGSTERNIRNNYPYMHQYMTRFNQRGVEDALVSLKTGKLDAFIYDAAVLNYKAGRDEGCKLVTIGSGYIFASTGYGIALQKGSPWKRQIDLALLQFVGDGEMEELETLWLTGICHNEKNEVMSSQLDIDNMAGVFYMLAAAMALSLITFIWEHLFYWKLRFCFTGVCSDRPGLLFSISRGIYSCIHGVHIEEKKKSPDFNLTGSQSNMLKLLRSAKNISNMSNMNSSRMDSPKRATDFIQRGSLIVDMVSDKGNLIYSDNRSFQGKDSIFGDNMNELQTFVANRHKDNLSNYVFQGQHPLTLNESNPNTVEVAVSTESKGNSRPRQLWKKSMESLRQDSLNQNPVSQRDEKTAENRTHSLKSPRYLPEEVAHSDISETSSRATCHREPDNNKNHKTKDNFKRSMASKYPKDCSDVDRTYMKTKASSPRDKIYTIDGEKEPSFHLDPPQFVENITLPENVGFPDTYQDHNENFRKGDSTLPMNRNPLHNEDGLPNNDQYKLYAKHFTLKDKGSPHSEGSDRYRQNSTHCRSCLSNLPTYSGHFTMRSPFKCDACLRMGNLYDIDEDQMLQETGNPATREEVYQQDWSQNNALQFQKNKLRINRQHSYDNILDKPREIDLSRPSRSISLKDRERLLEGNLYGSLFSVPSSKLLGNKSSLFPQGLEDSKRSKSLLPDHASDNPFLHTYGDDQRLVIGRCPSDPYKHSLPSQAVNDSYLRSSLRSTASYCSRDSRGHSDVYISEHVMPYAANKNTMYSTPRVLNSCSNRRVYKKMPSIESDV

| Substance | co-IP signal with PMA, normalised to control (IP with anti-GluN1) (fold of control) [1] | co-IP signal with PMA, normalised to control (IP with anti-Rab11) (fold of control) [2] | co-IP signal with PMA, normalised to control (IP with anti-FIP3) (fold of control) [3] | co-IP signal with PMA, normalised to control (IP with anti-MyoVa) (fold of control) [4] |
| --- | --- | --- | --- | --- |
| Rab11 family-interacting protein 3 (natural protein) | 1.37 | – | – | – |
| myosin Va (from UniProt Q9QYF3 1-1828) (natural protein) | – | 1.33 | 1.33 | – |
| small GTPase Rab11 (from UniProt P62494 1-216) (natural protein) | 1.53 | – | 1.38 | 1.31 |
| NMDA receptor subunit GluN2A (from UniProt Q00959 23-1464) | – | 1.39 | 1.45 | – |
| NMDA receptor subunit GluN1 (from UniProt P35439 19-938) | – | 1.5 | 1.44 | – |
